IntAct's records for PubMed 12646039

B1: E3 ubiquitin-protein ligase RHA2A (Arabidopsis thaliana (Mouse-ear cress)), Q9ZT50 (parent)
chain: MGLQGQLSDVSSDSIPLMLLSLLAVFINHLRSFLLRLTSKSNPNLPVDDVSIASGLANIIVLADQLSLNRLFSYRCGDGGGGGSDCVVCLSKLKEGEEVRKLECRHVFHKKCLEGWLHQFNFTCPLCRSALVSDDCVSKTQRSVGRDLISCFSLH
partner: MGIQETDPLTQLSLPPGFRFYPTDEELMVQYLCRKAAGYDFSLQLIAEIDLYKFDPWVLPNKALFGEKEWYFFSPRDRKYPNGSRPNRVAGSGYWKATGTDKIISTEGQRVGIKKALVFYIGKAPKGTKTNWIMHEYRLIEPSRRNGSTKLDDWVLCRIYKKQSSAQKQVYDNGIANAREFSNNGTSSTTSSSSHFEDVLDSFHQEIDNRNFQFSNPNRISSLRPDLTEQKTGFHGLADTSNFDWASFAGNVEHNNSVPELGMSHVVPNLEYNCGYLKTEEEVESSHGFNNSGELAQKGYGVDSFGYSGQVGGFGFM

Variants of: B1
Conditions: with nac19_arath NAC019, Q9C932

| Variant | effect of a mutation on the interaction |
| --- | --- |
| MGLQGQLSDVSSDSIPLMLLSLLAVFINHLRSFLLRLTSKSNPNLPVDDVSIASGLANIIVLADQLSLNRLFSYRCGDGGGGGSDCVVSLSKLKEGEEVRKLECRHVFHKKCLEGWLHQFNFTCPLCRSALVSDDCVSKTQRSVGRDLISCFSLH [C89S] | decreasing interaction |
| MGLQGQLSDVSSDSIPLMLLSLLAVFINHLRSFLLRLTSKSNPNLPVDDVSIASGLANIIVLADQLSLNRLFSYRCGDGGGGGSDCVVCLSKLKEGEEVRKLPCRHVFHKKCLEGWLHQFNFTCPLCRSALVSDDCVSKTQRSVGRDLISCFSLH [E103P] | decreasing interaction |
